The source of these data is patent US20170202915A1 (TUFTS UNIVERSITY, published 2017).

Assay [1] has as its target T1, recombinant galectin-3 (UniProt P17931 2-250).
T1 construct: also called Gal-3
The assay can be described thus: galectin-agarose pulldown from LEC lysates, anti-PDPN western blot (FIG. 7A).
Method: Bound proteins were examined and were compared to total cell lysates (input) by western blot using anti-PDPN. […] Primary LECs were transfected with control (mock) or two siRNA that targeted different regions of PDPN. Knockdown efficiency was assessed by western blot using anti-PDPN and anti-β-actin antibodies. […] Primary LECs were transfected with control or PDPN siRNA. […] Data are plotted as mean±SEM and analyzed using Student's t test (FIG. 7C and FIG. 7F). *P<0.05, ***P<0.001 vs corresponding control.
Bound proteins were examined with total cell lysates (input) by western blot using an anti-PDPN antibody.

Assay [2] deals with T2, VEGFR-1 (UniProt P17948 27-1338, limits assumed).
T2 construct: whole, on cells
The assay can be described thus: galectin-agarose pulldown from primary LECs, western blot (FIG. 21A). (A western blot detects proteins with antibodies after separation by electrophoresis.)
Method: Primary LECs were incubated with agarose beads (control), and galectin-conjugated agarose beads at 4° C. overnight. Unbound proteins were removed and the bound proteins were eluted with 20 μL of 2× Laemmli sample buffer and analyzed and compared to control input by western blotting. […] LEC lysates incubated with unconjugated beads served as a negative control.

T1 sequence (P17931 2-250 limits assumed): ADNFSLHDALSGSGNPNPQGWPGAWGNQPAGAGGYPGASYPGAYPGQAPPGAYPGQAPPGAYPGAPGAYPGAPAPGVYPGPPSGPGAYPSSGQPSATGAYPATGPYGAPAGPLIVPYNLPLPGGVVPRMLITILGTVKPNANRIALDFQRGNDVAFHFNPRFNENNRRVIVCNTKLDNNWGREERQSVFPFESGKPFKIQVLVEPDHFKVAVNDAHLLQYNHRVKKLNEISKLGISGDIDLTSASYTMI
T2 sequence (P17948 27-1338 limits assumed): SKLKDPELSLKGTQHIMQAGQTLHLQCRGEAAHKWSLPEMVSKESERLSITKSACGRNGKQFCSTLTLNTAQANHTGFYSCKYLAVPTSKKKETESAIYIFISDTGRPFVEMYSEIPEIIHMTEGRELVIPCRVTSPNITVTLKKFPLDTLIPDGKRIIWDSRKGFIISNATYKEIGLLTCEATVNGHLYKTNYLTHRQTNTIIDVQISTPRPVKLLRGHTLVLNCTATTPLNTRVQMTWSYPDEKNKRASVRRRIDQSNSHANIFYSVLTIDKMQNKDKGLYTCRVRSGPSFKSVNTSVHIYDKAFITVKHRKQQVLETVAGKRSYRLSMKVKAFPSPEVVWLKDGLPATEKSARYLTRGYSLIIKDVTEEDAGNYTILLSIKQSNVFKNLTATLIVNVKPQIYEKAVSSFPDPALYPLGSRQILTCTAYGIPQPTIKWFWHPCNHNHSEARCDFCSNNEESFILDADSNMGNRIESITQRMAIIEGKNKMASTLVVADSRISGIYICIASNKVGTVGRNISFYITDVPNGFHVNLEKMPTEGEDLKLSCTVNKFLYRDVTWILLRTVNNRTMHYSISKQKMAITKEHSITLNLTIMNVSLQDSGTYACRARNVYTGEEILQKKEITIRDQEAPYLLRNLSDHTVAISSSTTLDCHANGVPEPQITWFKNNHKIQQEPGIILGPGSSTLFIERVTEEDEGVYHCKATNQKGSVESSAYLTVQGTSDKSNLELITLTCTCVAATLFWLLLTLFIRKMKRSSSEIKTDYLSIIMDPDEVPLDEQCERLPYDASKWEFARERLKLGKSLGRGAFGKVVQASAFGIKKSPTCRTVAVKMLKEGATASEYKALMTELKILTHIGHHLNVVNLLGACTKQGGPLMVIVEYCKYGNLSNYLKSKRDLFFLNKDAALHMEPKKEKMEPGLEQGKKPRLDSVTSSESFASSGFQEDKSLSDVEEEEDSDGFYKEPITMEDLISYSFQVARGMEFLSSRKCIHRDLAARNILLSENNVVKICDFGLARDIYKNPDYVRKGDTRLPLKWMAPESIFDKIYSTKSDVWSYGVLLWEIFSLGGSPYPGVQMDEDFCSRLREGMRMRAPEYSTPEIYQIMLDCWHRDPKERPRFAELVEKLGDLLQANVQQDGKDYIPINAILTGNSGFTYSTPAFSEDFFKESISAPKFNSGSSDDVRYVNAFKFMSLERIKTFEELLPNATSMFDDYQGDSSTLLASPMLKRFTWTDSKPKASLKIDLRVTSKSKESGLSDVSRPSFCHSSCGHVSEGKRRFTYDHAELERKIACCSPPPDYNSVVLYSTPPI

B1: podoplanin (receptor, human, UniProt Q86YL7 23-162, looked up)
chain: ASTGQPEDDTETTGLEGGVAMPGAEDDVVTPGTSEDRYKSGLTTLVATSVNSVTGIRIEDLPTSESTVHAQEQSPSATASNVATSHSTEKVDGDTQTTVEKDGLSTVTLVGIIVGVLLAIGFIGAIIVVVMRKMSGRYSP
modifications: O-glycosylated with alpha2,3-sialyl glycans
notes: whole, on cells; Endogenous protein from LEC lysates in the pulldowns and co-immunoprecipitation; also called PDPN
With B1, the binding result in assay [1] was “no binding”.

B2: recombinant full-length galectin-8 (other, UniProt O00214 1-317, looked up)
chain: MMLSLNNLQNIIYNPVIPFVGTIPDQLDPGTLIVIRGHVPSDADRFQVDLQNGSSMKPRADVAFHFNPRFKRAGCIVCNTLINEKWGREEITYDTPFKREKSFEIVIMVLKDKFQVAVNGKHTLLYGHRIGPEKIDTLGIYGKVNIHSIGFSFSSDLQSTQASSLELTEISRENVPKSGTPQLRLPFAARLNTPMGPGRTVVVKGEVNANAKSFNVDLLAGKSKDIALHLNPRLNIKAFVRNSFLQESWGEEERNITSFPFSPGMYFEMIIYCDVREFKVAVNGVHSLEYKHRFKELSSIDTLEINGDIHLLEVRSW
notes: mature; Tandem-repeat lectin with an N-CRD and a C-CRD; also called Gal-8; exogenous Gal-8
For the molecule B2, the binding result in assay [2] is “no binding”.
